In article PMC11041685, “Emergence of fractal geometries in the evolution of a metabolic enzyme” (Nature, 2024) one finds stoichiometry N, Km and kcat data, which are given here for nine molecules.

Data set [1] deals with citrate synthase from Synechococcus elongatus PCC 7942 (Synechococcus elongatus PCC 7942). Nature of the data set: negative-stain electron microscopy; 450 nM protein on carbon-coated copper grids, 2% uranyl acetate; 2D class averages and manual particle counts.
The target is the same in data set [2]. Nature of the data set: cryo-EM structure; 22.5 µM protein on Quantifoil 2/1 grids.
The target is the same in data set [3]. Put plainly: SAXS; dilution series from the highest concentration, 25 mM Tris-HCl pH 7.5, 200 mM NaCl, 20 °C; Rg by Guinier approximation against Rg of models of the 6mer, 18mer and 54mer.
Data set [4] shares this target. Nature of the data set: mass photometry; pH titration, 20 mM Tris, 200 mM NaCl pH 7–9.5, 50 nM protein.
For data set [5] the target is unchanged. Put plainly: mass photometry; with acetyl-CoA, oxaloacetate or citrate: protein incubated 10 min with the substrate, same substrate concentration in the buffer; cys4 after oxidation.
Data set [6] shares this target. Nature of the data set: mass photometry; 50 nM protein unless stated otherwise, in PBS or 20 mM Tris, 200 mM NaCl pH 7.5; masses of the complexes in solution, fraction of CS subunits in each oligomeric state.
Data set [7] shares this target. Nature of the data set: crystal structure; 250 µM protein incubated with 5 mM acetyl-CoA; 0.1 M citrate pH 5.5, 2.0 M ammonium sulfate, 20 °C; citrate-bound.
In data set [8] the target is citrate synthase from Planktothrix mougeotii (Planktothrix mougeotii). Put plainly: mass photometry; 50 nM protein unless stated otherwise, in PBS or 20 mM Tris, 200 mM NaCl pH 7.5; masses of the complexes in solution, fraction of CS subunits in each oligomeric state.
The target in data set [9] is citrate synthase from Cyanobium sp. PCC7001 (Cyanobium sp. PCC7001). Described as above.
Data set [10] has as its target SeCS L18Q (Synechococcus elongatus PCC 7942). Put plainly: negative-stain electron microscopy; 450 nM protein on carbon-coated copper grids, 2% uranyl acetate; 2D class averages and manual particle counts.
For data set [11] the target is unchanged. Nature of the data set: SAXS; dilution series from the highest concentration, 25 mM Tris-HCl pH 7.5, 200 mM NaCl, 20 °C; Rg by Guinier approximation against Rg of models of the 6mer, 18mer and 54mer.
For data set [12] the target is unchanged. Nature of the data set: mass photometry; 50 nM protein unless stated otherwise, in PBS or 20 mM Tris, 200 mM NaCl pH 7.5; masses of the complexes in solution, fraction of CS subunits in each oligomeric state.
In data set [13] the target is H369R SeCS (Synechococcus elongatus PCC 7942). Put plainly: negative-stain electron microscopy; 450 nM protein on carbon-coated copper grids, 2% uranyl acetate; 2D class averages and manual particle counts.
The target is the same in data set [14]. Nature of the data set: cryo-EM structure; 22.5 µM protein on Quantifoil 2/1 grids.
The target is the same in data set [15]. Described as above. The source holds these as a separate data set.
The target is the same in data set [16]. Put plainly: mass photometry; 50 nM protein unless stated otherwise, in PBS or 20 mM Tris, 200 mM NaCl pH 7.5; masses of the complexes in solution, fraction of CS subunits in each oligomeric state.
Data set [17] deals with Δ2–6 SeCS (Synechococcus elongatus PCC 7942). Nature of the data set: cryo-EM structure; 22.5 µM protein on Quantifoil 2/1 grids.
Data set [18] has the same target. Nature of the data set: mass photometry; 50 nM protein unless stated otherwise, in PBS or 20 mM Tris, 200 mM NaCl pH 7.5; masses of the complexes in solution, fraction of CS subunits in each oligomeric state.
The target in data set [19] is SeCS D147A + L18Q (Synechococcus elongatus PCC 7942). Nature of the data set: native MS; 200 mM ammonium acetate, positive-ion nanoelectrospray; D147A at 20 µM, D147A + L18Q at 35 µM.
The target is the same in data set [20]. Put plainly: mass photometry; 50 nM protein unless stated otherwise, in PBS or 20 mM Tris, 200 mM NaCl pH 7.5; masses of the complexes in solution, fraction of CS subunits in each oligomeric state.
Data set [21] deals with D147A SeCS (Synechococcus elongatus PCC 7942). Put plainly: native MS; 200 mM ammonium acetate, positive-ion nanoelectrospray; D147A at 20 µM, D147A + L18Q at 35 µM.
For data set [22] the target is unchanged. The description is as above. This is another data set of the same source.
Data set [23] has the same target. Put plainly: mass photometry; 50 nM protein unless stated otherwise, in PBS or 20 mM Tris, 200 mM NaCl pH 7.5; masses of the complexes in solution, fraction of CS subunits in each oligomeric state.
Substrate in data set [24]: O=C(O)CC(=O)C(=O)O
Nature of the data set: purified protein. Format: biochemical, Synechococcus elongatus. To be noted: 0.5 mM acetyl-CoA, 50 mM Tris pH 7.5, 10 mM KCl, 25 nM protein, 25 °C.

Substrate in data set [25]: CC(=O)SCCNC(=O)CCNC(=O)[C@H](O)C(C)(C)COP(=O)(O)OP(=O)(O)OC[C@H]1O[C@@H](n2cnc3c(N)ncnc32)[C@H](O)[C@@H]1OP(=O)(O)O
Nature of the data set: purified protein. The class given is biochemical, Synechococcus elongatus. To be noted: 1 mM oxaloacetate, 50 mM Tris pH 7.5, 10 mM KCl, 25 nM protein, 25 °C.

Several values for one entry are separate records, joined by “and”; a condition that tells them apart may be missing. Identical values can stand only once.

For “citrate synthase from Synechococcus elongatus PCC 7942 (enzyme)”, the stoichiometry N in [1] was 18 subunits and 36 subunits and 54 subunits; in data set [2], 18 subunits; in [3] it was greater than 54 subunits; in [4] it was 6 subunits; in [5], 6 subunits; in data set [6], 18 subunits. For the same molecule, the stoichiometry N in data set [7] amounted to 6 subunits.

In turn, “citrate synthase from Planktothrix mougeotii (enzyme)” displayed a stoichiometry N in data set [8] of 18 subunits.

“citrate synthase from Cyanobium sp. PCC7001 (enzyme)” returned a stoichiometry N in data set [9] of 2 subunits.

On to SeCS L18Q (enzyme), for which the stoichiometry N in data set [10], in [11] and in data set [12] was 6 subunits throughout.

On to H369R SeCS (enzyme), for which the stoichiometry N in [13] is 18 subunits and 54 subunits; in [14], 54 subunits; in [15] it was 18 subunits; in [16], 18 subunits.

Turning to Δ2–6 SeCS (enzyme), the stoichiometry N in data set [17] and in [18] was 6 subunits throughout.

SeCS D147A + L18Q (enzyme): the stoichiometry N was 2 subunits and 6 subunits in data set [19]; 2 subunits in data set [20].

As to D147A SeCS (enzyme), the stoichiometry N in [21] was greater than 8 subunits; in data set [22] it was 4 subunits and 6 subunits; in data set [23], 2 subunits.

B1: SeCS (CS of S. elongatus PCC 7942) (Synechococcus elongatus PCC 7942 = FACHB-805) (protein)
chain: MTAVSEFRPGLEGVPATLSSISFVDGQRGVLEYRGISIEQLAQQSSFLETAYLLIWGHLPTQQELTEFEHEIRYHRRIKFRIRDMMKCFPDSGHPMDALQASAAALGLFYSRRALDDPEYIRAAVVRLLAKIPTMVAAFQLIRKGNDPIQPRDELDYAANFLYMLTEREPDPVAARIFDICLTLHAEHTINASTFSAMVTASTLTDPYAVVASAVGTLAGPLHGGANEEVLDMLEAIGSVENVEPYLDHCIATKTRIMGFGHRVYKVKDPRAVILQNLAEQLFDIFGHDPYYEIAVAVEKAAAERLSHKGIYPNVDFYSGLVYRKLGIPSDLFTPVFAIARVAGWLAHWKEQLNENRIFRPTQIYTGSHNLDYTPIADRDLAIESD
notes: full length, C-terminal His tag (LE-HHHHHH) kept, E. coli BL21 (DE3); 18mer, active as homohexamer
For B1, in the data set “purified protein [24]”, the Michaelis constant (Km) is 65.6 ± 10.6 µM and the kcat was 19.5 ± 1.7 s⁻¹. Further, in the data set “purified protein [25]”, the Michaelis constant (Km) stood at 91.8 ± 9.2 µM and the kcat worked out at 24.2 ± 1.3 s⁻¹.

For orientation: stoichiometry N means a count of units in the complex or per binding partner. One may read the Km as the substrate concentration at which the rate is half of its maximum. For orientation: kcat means the maximal rate divided by the concentration of active sites.
